# Laboratory results: paper PMC10507807, “De novo design of a stapled peptide targeting SARS-CoV-2 spike protein receptor-binding domain” (RSC Medicinal Chemistry, 2023)
# Molecular target: recombinant SARS-CoV-2 spike B.1.617.2 with His-tag (SARS-CoV-2), P0DTC2
# Experiment: BLI
binder,measurement,value
"GTEWLYKVWKAFVDNMS (designed binder, modifications not checked) [stapled peptide pep39]",Kd,4.1 µM
